# B1: CBF3 p110 (p110^NDC10) (natural protein)
# chain: MRSSILFLLKLMKIMDVQQQQEAMSSEDRFQELVDSLKPRTAHQYKTYYTKYIQWCQLNQIIPTPEDNSVNSVPYKDLPISAELIHWFLLDTLITDDKPGEKREETEDLDEEEENSFKIATLKKIIGSLNFLSKLCKVHENPNANIDTKYLESVTKLHTHWIDSQKAITTNETNNTNTQVLCPPLLKVSLNLWNPETNHLSEKFFKTCSEKLRFLVDFQLRSYLNLSFEERSKIRFGSLKLGKRDRDAIIYHKVTHSAEKKDTPGHHQLLALLPQDCPFICPQTTLAAYLYLRFYGIPSVSKGDGFPNLNADENGSLLQDIPILRGKSLTTYPREETFSNYYTTVFRYCHLPYKRREYFNKCNLVYPTWDEDTFRTFFNEENHGNWLEQPEAFAFPDKIPFDFKKIMNFKSPYTSYSTNAKKDPFPPPKDLLVQIFPEIDEYKRHDYEGLSQNSRDFLDLMEVLRERFLSNLPWIYKFFPNHDIFQDPIFGNSDFQSYFNDKTIHSKGSPILSFDILPGFNKIYKNKTNFYSLLIERPSQLTFASSHNPDTHPTQKQESEGPLQMSQLDTTQLNELLKQQSFEYVQFQTLSNFQILLSVFNKIFEKLEMKKSSRGYILHQLNLFKITLDERIKKSKIDDADKFIRDNQPIKKEENIVNEDGPNTSRRTKRPKQIRLLSIADSSDESSTEDSNVFKKDGESIEDGAYGENEDENDSEMQEQLKSMINELINSKISTFLRDQMDQFELKINALLDKILEEKVTRIIEQKLGSHTGKFSTLKRPQLYMTEEHNVGFDMEVPKKLRTSGKYAETVKDNDDHQAMSTTASPSPEQDQEAKSYTDEQEFMLDKSIDSIEGIILEWFTPNAKYANQCVHSMNKSGNKSWRANCEALYKERKSIVEFYIYLVNHESLDRYKAVDICEKLRDQNEGSFSRLAKFLRKWRHDHQNSFDGLLVYLSN
# Target: the molecule itself
protein,measurement,value
B1,stoichiometry N,2

# Reference: paper PMC2132615 (The Journal of Cell Biology, 1997)
